The numbers were not newly measured in paper PMC4216181 (Journal of nuclear medicine : official publication, Society …, 2009), which cites them from elsewhere.

A word on the Kd: it is the constant that tells how readily two partners part at equilibrium.

This data set deals with HER2 (Homo sapiens, UniProt P04626). Conditions: read-out: dissociation constant [KD]; HER2, nonmodified 2-helix protein; cited from earlier work.

Regarding “[homoC]NKEMRNRYWEAALDPNLNNQQK-RAKIRSIYDDP[homoC]-NH2 (disulfide) [MUT-DS]”, the Kd is 5 nM.
